From patent US9090686B2, “Antibodies for the treatment of HIV” (Pierre Fabre Medicament, priority 2009, dated 2015) come the findings set out here.

The subject of assay [1] is HIV-1 primary isolate 89.6 (dual X4/R5 virus). In words: Single cycle neutralization assay in human PBMC, isolate 89.6. The assay is classed as cell-based. The method, then:
This assay is performed in 36 h using primary isolate 89.6 concentrated and diluted accordingly to allow the detection 2% infected CD4 T lymphocytes after 2 days of infection.
(§1) Twenty-five microliters of various dilutions of Mabs 515H7, c515H7 and 301aE5 were incubated for 1 h at 37° C. with 25 μl of virus. Human PBMC (25 μl) at 20×10^6 cells/ml were added to the Mab/virus mixture in a 96-well plate (U-bottom, Costar 3599) and cultured for 36 h in RPMI 1640 10% FCS and 20 U/ml IL-2 (R&D Systems, Minneapolis, Minn.).
(§2) After 2 days of culture, HIV-infected lymphocytes were detected by intracellular staining of viral p24 Ag. Cells were fixed and permeabilized using both Cytofix/Cytoperm and Perm/Wash kits (BD Biosciences) according to the manufacturer and stained with a fluorescent anti-p24 Mab (FITC- or PE-anti-p24, clone KC57; Beckman Coulter/Immunotech, Hialeah, FL) used at a 1/160 dilution in Perm/Wash solution added for 15 min at 4° C. After washing in PBS with 3% FBS, PBMC were diluted in 300 μl of PBS before flow cytometry analysis (LSRII; BD Biosciences) with DIVA software (BD Biosciences). The percentage of p24-positive cells in the different samples was determined by gating 20,000 events on a living cell population identified by forward- and side-scatter parameters. The living cell subsets were analyzed with the live/dead solution kit (Invitrogen). The p24 Ag-positive value was obtained after subtraction of background events in mock-infected cells.
(§3) The percent of neutralization was defined as the reduction of p24-positive cells compared with control infected wells with no Mab. The neutralizing titer was defined as the concentration of antibody (interpolated between successive dilutions performed in triplicate) that allows a 90% decrease in the percentage of infected cells.

Assay [2] has as its system HIV-1 X4 primary isolate KON. In words: Single cycle neutralization assay in human PBMC, isolate KON. Type of assay: cell-based. To be noted: for KON % inhibition of infected cells 90: IC for 90% inhibition, human PBMC. As for the experimental part: This assay is performed in 36 h using primary isolates KON, MN and 92UG024 concentrated and diluted accordingly to allow the detection 2% infected CD4 T lymphocytes after 2 days of infection.
as §1
as §2, with “Fla.)” for “FL)”
as §3
This assay was performed in 36 h using primary isolate KON concentrated and diluted accordingly to allow the detection 2% infected CD4 T lymphocytes after 2 days of infection.
[…] Human PBMC (25 p.1) at 20×10^6 cells/ml were added to the Mab/virus mixture in a 96-well plate (U-bottom, Costar 3599) and cultured for 36 h in RPMI 1640 10% FCS and 20 U/ml IL-2 (R&D Systems, Minneapolis, Minn.).
The percent of neutralization was defined as the reduction of p24-positive cells compared with control infected wells with no Mab. The neutralizing titer was defined as the concentration of antibody (interpolated between successive dilutions performed in triplicate) […].

Bounds are passed on as bounds.

B1: 515H7: murine anti-CXCR4 monoclonal antibody; light chain variable domain SEQ ID No. 7, heavy chain variable domain SEQ ID No. 8 (antibody, listed as Mus musculus, V domains shown)
VH: EVNLVESGGGLVQPGGSLRLSCATSGFTFTDNYMSWVRQPPGKALEWLGFIRNKANGYTTDYSASVRGRFTISRDNSQSILYLQMNALRAEDSATYYCARDVGSNYFDYWGQGTTLTVSS
VL: DIVMSQSPSSLAVSAGEKVTMSCKSSQSLFNSRTRKNYLAWYQQKPGQSPKLLIYWASARDSGVPARFTGSGSETYFTLTISRVQAEDLAVYYCMQSFNLRTFGGGTKLEIK
For B1, the “inhibition of HIV-1 89.6 primary isolate replication in PBMC (in words)” value in assay [1] is recorded as “able to inhibit”. Moreover, in assay [2], the “inhibition of HIV-1 X4 KON primary isolate replication in PBMC (in words)” value is listed as “able to inhibit” and the “KON % inhibition of infected cells 90” value was 15 µg/mL.

B2: c515H7: chimeric antibody 515H7: murine variable domains fused to human Ckappa and IgG1/IgG2/IgG4 constant domains; isotype tested not stated (antibody, V domains shown)
VH: EVNLVESGGGLVQPGGSLRLSCATSGFTFTDNYMSWVRQPPGKALEWLGFIRNKANGYTTDYSASVRGRFTISRDNSQSILYLQMNALRAEDSATYYCARDVGSNYFDYWGQGTTLTVSS
VL: DIVMSQSPSSLAVSAGEKVTMSCKSSQSLFNSRTRKNYLAWYQQKPGQSPKLLIYWASARDSGVPARFTGSGSETYFTLTISRVQAEDLAVYYCMQSFNLRTFGGGTKLEIK
Regarding B2, the “inhibition of HIV-1 89.6 primary isolate replication in PBMC (in words)” value in assay [1] is on record as “able to inhibit”. In addition, in assay [2], the “inhibition of HIV-1 X4 KON primary isolate replication in PBMC (in words)” value is on record as “able to inhibit” and the “KON % inhibition of infected cells 90” value amounted to 20 µg/mL.

B3: 301aE5: murine anti-CXCR4 monoclonal antibody; light chain variable domain SEQ ID No. 34, heavy chain variable domain SEQ ID No. 35 (antibody, listed as Mus musculus, V domains shown)
VH: QVQLKESGPGLVAPSQSLSITCTVSGFSLTDYGVYWVRQPPGKGLEWLGMIWGDGTTDYNSALKSRLSISKDNSKSQVFLKMNTLQTDDTARYYCARGRQFGFDYWGQGTTLTVSS
VL: DIVMSQSPSSLAVSAGEKVTMRCKSSQSLFNSRTRKNYLAWYQQKPGQSPKLLIFWASIRESGVPDRFTGSGSGTDFTLTISSVQAEDLAVYYCKQSYNLRTFGGGTKLEIK
As for B3, the “inhibition of HIV-1 89.6 primary isolate replication in PBMC (in words)” value in assay [1] is on record as “able to inhibit”. In addition, in assay [2], the “inhibition of HIV-1 X4 KON primary isolate replication in PBMC (in words)” value is “able to inhibit” and the “KON % inhibition of infected cells 90” value was greater than 150 µg/mL.
